Test results reported in US20100267060A1 (BIOSITE, published 2010).

T1: Human secretagogin (SEQ ID NO: 1, containing an amino terminal … FLIS tag) (human, UniProt O76038 1-276)
T1 construct: It was biotinylated for the screening ELISA and unlabeled in the sandwich screens; also called Secretagogin protein; human secretagogin-biotin
T1 sequence: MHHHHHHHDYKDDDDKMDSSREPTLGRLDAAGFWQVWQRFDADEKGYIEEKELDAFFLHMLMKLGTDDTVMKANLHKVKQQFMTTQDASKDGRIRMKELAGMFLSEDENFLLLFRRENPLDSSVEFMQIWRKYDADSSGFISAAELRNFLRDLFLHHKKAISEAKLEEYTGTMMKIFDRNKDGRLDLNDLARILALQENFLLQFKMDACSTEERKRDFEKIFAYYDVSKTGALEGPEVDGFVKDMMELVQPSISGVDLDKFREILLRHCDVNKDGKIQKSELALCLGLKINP


Target: T1, Human secretagogin (SEQ ID NO: 1, …)
Experiment: method not stated

| Binder | Ka [M⁻¹] |
| --- | --- |
| ST102Z X1ZM 01611 (antibody, V domains shown, Mouse monoclonal antibody from phage-display library ST102ZX1, expressed in E. coli from a plasmid vector) VH: QVQLQQSRPELVRPGASVKISCKAPGYIFTSHWMQWVRQRPGQGLEWIGEIFPGSGSTFYNEKFKDKATLTVDTSSSTAYMQLSSLTSEDSAVYFCARTDYYSSAMDYWGQGTSVTVSS VL: ETTVTQSPSSLSMAIGEKVTIRCITHTDIDDDMNWYQQKPGEPPKLLISEGNTLRPGVPSRFSSSGFGTDFFFTIENMLSEDVADYYCLQSDTLPLTFGAGTKLELK | ≥ 1e+10 |
| ST108Z R1ZM 02871 (antibody, V domains shown, Mouse monoclonal antibody from phage-display library ST108ZR1, expressed in E. coli from a plasmid vector) VH: EVQLQQSGPELVKPGTSVKMSCKASGYSFTDYNMHWVKQSHGKSLEWIGYVDPNIGGTSYNPKFKGKATLTVNKSSSTAYMELRSLTSEDSAVYFCARYPNYSGRRYLFAMDYWGQGTSVTVSS VL: EIVLTQSPAIMSASPGEKVTLTCSASSSISSSYFYWYRQKPGSSPQLWIYGTSNLASGVPARFSGSGSGTSYSLTISSMEAEDAASYFCHQWSSYPLTFGAGTKLELK | ≥ 1e+10 |
